The values that follow come from patent US10501734B2, “Compositions and methods of use thereof for making polypeptides with many instances of nonstandard amino acids” (Yale University, priority 2014, dated 2019).

Experiment [1] relates to TAG codons. The experiment can be described thus: MRM mass spectrometry quantitation of nsAA incorporation in ELP-GFP. As to conditions: for pAcF (Y) / pAcF: calculated as 100%−Y %−F %. More on the design: species or system E. coli. Here is the method: Purified ELP-GFP protein was dissolved by vortex in protein solubilization buffer (15 mM Tris-HCl, 1.5 mM EDTA, pH=8.5) and the protein concentration was determined by UV280. Solubilization buffer was then added to adjust the concentration of the protein stock solutions to 2.0 μg/μl. For protein digestion, 12.5 μl of this solution (25 μg) was supplemented with 3.125 μl freshly prepared digestion buffer 5×. The composition of the digestion buffer 5× was: 50 mM Tris-HCl pH=8.5, 5 mM EDTA, 50 mM DTT and 2.5% (w/v) freshly prepared acid labile surfactant II (ALS II). Proteins were thermally denatured in a heat block at 95° C. for 5 min and the reaction was then quenched on ice. To alkylate the cysteines, 2.5 μl of 1 M Tris-HCl buffer (pH=8.5) and 5.83 μl freshly prepared 100 mM IAA solution were added. The reaction proceeded for 30 min at room temperature and in the dark. Excess IAA was quenched with 0.875 μl of 200 mM aqueous DTT solution. Next, 1.25 μl LysC enzyme solution, prepared at 7.0×10^−4 activity units/μl in water, were added and protein was digested for 4 h at 37° C. in an incubator without shaking. The digest was supplemented with 157.77 μl 105.6 mM Tris-HCl pH=8.5 buffer containing 5.28 mM CaCl2. For digestion with trypsin, 3.6 μl sequencing grade porcine trypsin (Promega), provided as solution with 0.5 μg/μl trypsin, was added and digestion proceeded for 15 h at 37° C. in an incubator without shaking. The digest was quenched by adding 15.63 μl 20% TFA solution. The pH value of the digest was tested with pH indicator paper to ensure that the pH value was between a value of 1 and 2 to ensure efficient cleavage conditions for ALSII. Detergent was hydrolyzed for 15 min at 23° C. and peptides were desalted using C18 UltraMicroSpin columns (The Nest Group, Southborough, Mass.) following the instructions provided with the columns. Eluted peptides solutions were dried in a vacuum centrifuge which was operated at 45° C. The dried peptides were then dissolved by vortex in 11 μl peptide solvent consisting of 2:3:7 by volume 70% FA, 1-propanol and 0.5% acetic acid. The peptide concentration was determined by UV280 enabling equal loading for LC-MS. Peptide stock solutions were frozen at −80° C. until use. For shotgun proteomic analysis, peptide stock solutions were diluted to a concentration of 60 ng/μl in 3:8 by volume 70% formic acid 0.1 TFA and 5 μl corresponding to 300 ng total peptides were injected for each analysis.
The C-terminally labeled stable isotope labeled peptides (lysine (^13C6^15N2) or arginine (^13C6^15N4)) VPGAGVPGYGVPGVGK, VPGAGVPGFGVPGVGK and FEGDTLVNR were obtained as a lyophilized powder supplied as 1 nmol aliquots. Peptides were dissolved in 30% acetonitrile 0.1% formic acid at a concentration of 20 pmol/μl. Standards were then combined to obtain a master mix with 6.666 pmol/μl of each peptide. Dilution of peptide standards and protein digest for MRM was performed in Agilent polypropylene sample vials with MRM solvent consisting of 100 ng/μl sodium deoxycholate in 3:7 by volume DMSO/0.1% formic acid. Calibration of the instrument was performed with a 11 point calibration curve with 0, 1, 2, 5, 10, 20, 50, 100, 200, 500 and 1000 fmol peptide injected. Peptide stock solutions from the digestion of ELP-GFP were prepared at 5 ng/μl in MRM solvent containing 50 fmol/μl of the stable isotope labeled peptides. MRM solvent blank injections between sample injections and quality control standards analyzed before and after sample injection ensured consistent performance of the MRM platform.
Shotgun discovery data from the analysis of stable isotope labeled peptides and ELP-GFP digests were imported into Skyline^2 software v. 2.5 to extracted suitable transitions for MRM quantitation of peptides. A detailed description of this workflow will be reported somewhere else^3. Briefly, at least 3 transitions were extracted for peptides reporting incorporation of natural and unnatural amino acids at the position of the stop codon. […]

For experiment [2], the system named is GFP(3TAG). The experiment in a line: nsAA library screening, GFP(3TAG) fluorescence in 384 well plates. It is filed as cell-based, E. coli. To be noted: GFP(3TAG) production in the presence of pAcF, pAzF and 236 other nsAAs.
Setting [3] is: ELP(10TAG)-GFPMS, nsAA added pAcF.
[4] abbreviates: ELP(10TAG)MS-ELP(20TAG)-GFP, nsAA added pAcF.
Setting [5] is: ELP(20TAG)-ELP(10TAG)MS-GFP, nsAA added pAcF.
The mark [6] stands for this setting: ELP(30TAG)-GFPMS, nsAA added pAcF.

B1: pAzFRS.2.t1: pAcFRS variant E107T, F108Y, Q109M, R257G, SEQ ID NO: 14 (protein)
chain: MDEFEMIKRNTSEIISEEELREVLKKDEKSALIGFEPSGKIHLGHYLQIKKMIDLQNAGFDIIILLADLHAYLNQKGELDEIRKIGDYNKKVFEAMGLKAKYVYGSTYMLDKDYTLNVYRLALKTTLKRARRSMELIAREDENPKVAEVIYPIMQVNGCHYRGVDVAVGGMEQRKIHMLARELLPKKVVCIHNPVLTGLDGEGKMSSSKGNFIAVDDSPEEIRAKIKKAYCPAGVVEGNPIMEIAKYFLEYPLTIKGPEKFGGDLTVNSYEELESLFKNKELHPMRLKNAVAEELIKILEPIRKRL
In the case of B1, the “F at TAG position” value is given as 55.35% in experiment [1] (ELP(10TAG)-GFPMS, No nsAA); 2.45% in experiment [1] (setting [3]); 3.74% in experiment [1] (setting [4]); 3.25% in experiment [1] (setting [5]); 2.87% in experiment [1] (setting [6]). Besides, the “Y at TAG position” value was 50.15% in experiment [1] (ELP(10TAG)-GFPMS, No nsAA); 2.08% in experiment [1] (setting [3]); 2.19% in experiment [1] (setting [4]); 2.17% in experiment [1] (setting [5]); 1.78% in experiment [1] (setting [6]). The “pAcF (Y)” value is −5.50% in experiment [1] (ELP(10TAG)-GFPMS, No nsAA) and 95.47% in experiment [1] (setting [3]). In addition, the pAcF in experiment [1] (setting [4]) was 94.06%; in experiment [1] (setting [5]), 94.58%; in experiment [1] (setting [6]) it was 95.35%. The “near cognate suppression and mischarging events of K, P, L/I, and Q” value in experiment [1] (content in proteins produced) was “striking decrease”. In experiment [2], the “nsAA specificity (polyspecificity)” value is listed as “polyspecific for at least pAcF, pAzF, StyA, 4IF, 4BrF, 4ClF, 4MeF, 4Cf3F, MeY, 4NO2F, 4BuF, BuY, 2NaA, PheF”.
